pKd: −log10 of the molar value.

The assay has as its target plasminogen (UniProt P00747). The assay can be described thus: SPR. A general note: Surface plasmon resonance follows binding to a sensor surface in real time, without labels.

Chain of plasminogen (P00747 20-810): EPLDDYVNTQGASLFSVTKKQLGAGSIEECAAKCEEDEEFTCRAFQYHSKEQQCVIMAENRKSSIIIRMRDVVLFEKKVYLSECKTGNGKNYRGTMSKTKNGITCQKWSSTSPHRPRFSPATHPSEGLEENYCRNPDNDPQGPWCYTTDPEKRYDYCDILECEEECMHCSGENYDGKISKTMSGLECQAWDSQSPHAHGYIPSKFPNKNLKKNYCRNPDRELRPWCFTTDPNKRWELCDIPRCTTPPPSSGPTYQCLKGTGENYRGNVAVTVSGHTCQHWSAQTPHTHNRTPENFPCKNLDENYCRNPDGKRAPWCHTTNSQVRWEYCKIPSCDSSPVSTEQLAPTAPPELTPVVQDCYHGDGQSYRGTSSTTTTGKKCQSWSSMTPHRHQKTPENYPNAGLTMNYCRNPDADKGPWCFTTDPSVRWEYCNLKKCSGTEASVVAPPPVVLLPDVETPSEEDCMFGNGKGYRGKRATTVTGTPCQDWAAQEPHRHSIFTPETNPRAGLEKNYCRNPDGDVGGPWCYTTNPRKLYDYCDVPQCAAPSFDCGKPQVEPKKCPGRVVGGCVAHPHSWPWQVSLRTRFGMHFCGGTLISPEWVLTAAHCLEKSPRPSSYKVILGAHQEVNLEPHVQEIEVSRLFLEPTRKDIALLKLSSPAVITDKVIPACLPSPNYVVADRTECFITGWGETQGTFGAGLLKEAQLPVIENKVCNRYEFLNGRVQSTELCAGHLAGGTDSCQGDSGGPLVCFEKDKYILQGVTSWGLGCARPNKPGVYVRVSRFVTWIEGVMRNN

Substance “rGAPDH C-terminal mutant (K336A) (from UniProt E4QS33 1-336) (enzyme)” showed a pKd of 6.22.

In general, pKd refers to the negative decadic logarithm of the Kd, by convention in mol/L. Lower therefore signals a high Kd.

The values are drawn from PMC10269845.
